The target of experiment [1] is full-length ACA8 (plasma-membrane Ca2+-ATPase ACA8) (UniProt Q9LF79).
For experiment [2] the target is unchanged. In words: native MS; DDM-solubilised ACA8, apo and with CaM; 200 mM ammonium acetate pH 8.3, 0.018% DDM; nanoESI, spectra at 200 V collision energy.
The target in experiment [3] is fluorescein-labeled regulatory domain of ACA8 (ACA8RD, residues 1-130) (UniProt Q9LF79). In words: fluorescence polarisation; fluorescence anisotropy, displacement; CaM added to a preformed complex of ACA8core (POPC nanodiscs) and labelled ACA8RD; decrease in anisotropy. (Polarisation of emitted light reports the rotation of a fluorescent probe.)

A value given as a limit tells only on which side of the number the result lay.

Sequence of full-length ACA8 (plasma-membrane Ca2+-ATPase ACA8) (Q9LF79 whole entry): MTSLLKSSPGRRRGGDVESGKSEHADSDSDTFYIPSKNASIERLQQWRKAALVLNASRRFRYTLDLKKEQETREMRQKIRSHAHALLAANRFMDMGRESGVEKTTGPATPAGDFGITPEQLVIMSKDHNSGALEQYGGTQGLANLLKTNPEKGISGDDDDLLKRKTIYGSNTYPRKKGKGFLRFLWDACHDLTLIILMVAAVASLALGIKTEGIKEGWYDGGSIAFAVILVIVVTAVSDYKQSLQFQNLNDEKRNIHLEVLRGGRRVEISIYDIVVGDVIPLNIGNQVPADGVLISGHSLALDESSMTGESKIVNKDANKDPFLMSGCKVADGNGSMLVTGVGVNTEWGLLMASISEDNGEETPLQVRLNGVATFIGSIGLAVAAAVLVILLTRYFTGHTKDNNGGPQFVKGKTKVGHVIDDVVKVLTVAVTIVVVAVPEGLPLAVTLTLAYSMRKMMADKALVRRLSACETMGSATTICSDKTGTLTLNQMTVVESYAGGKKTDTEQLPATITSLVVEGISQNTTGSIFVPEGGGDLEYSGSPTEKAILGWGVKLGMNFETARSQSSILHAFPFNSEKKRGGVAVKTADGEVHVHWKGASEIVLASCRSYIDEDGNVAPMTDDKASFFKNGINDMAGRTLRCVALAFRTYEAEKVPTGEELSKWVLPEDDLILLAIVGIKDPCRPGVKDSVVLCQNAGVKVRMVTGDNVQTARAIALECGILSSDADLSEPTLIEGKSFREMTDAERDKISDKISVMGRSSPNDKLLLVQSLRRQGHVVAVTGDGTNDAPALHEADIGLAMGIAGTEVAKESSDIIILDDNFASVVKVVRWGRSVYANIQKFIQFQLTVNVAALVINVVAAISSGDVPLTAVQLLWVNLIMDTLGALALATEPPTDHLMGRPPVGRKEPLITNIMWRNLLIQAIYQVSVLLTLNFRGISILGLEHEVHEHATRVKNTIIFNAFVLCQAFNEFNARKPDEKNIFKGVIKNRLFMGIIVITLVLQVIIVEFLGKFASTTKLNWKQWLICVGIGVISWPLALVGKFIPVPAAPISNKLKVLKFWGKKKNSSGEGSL
Sequence of fluorescein-labeled regulatory domain of ACA8 (ACA8RD, residues 1-130) (Q9LF79 other isoform, or with tags, fused parts or gaps): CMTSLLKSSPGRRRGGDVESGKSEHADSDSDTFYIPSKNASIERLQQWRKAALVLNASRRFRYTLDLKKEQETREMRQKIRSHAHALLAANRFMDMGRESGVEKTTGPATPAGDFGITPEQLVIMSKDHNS

Regarding “calmodulin CaM7 from A. thaliana (from UniProt P59220 1-149) (natural protein)”, in experiment [1], the ATPase activity (Baginski assay) of detergent solubilized ACA8 with CaM against basal activity without CaM came out at 2 fold. In experiment [2], the stoichiometry N was below 2. In experiment [3], this substance registered a K0.5 of 120 nM.

A word on the stoichiometry N: it is a count of units in the complex or per binding partner.

These data come from article PMC6255812.
